Experimental data published in PMC11062541.
Where two headings read alike, the source gives them in different places.

Columns and labels:
Assay in all cases: EMSA
[1] = test system: T1, AbiEiDel-AHTH internal_change (Streptococcus suis serotype 5 strain HN105), ORF:22a13f51
T1 sequence: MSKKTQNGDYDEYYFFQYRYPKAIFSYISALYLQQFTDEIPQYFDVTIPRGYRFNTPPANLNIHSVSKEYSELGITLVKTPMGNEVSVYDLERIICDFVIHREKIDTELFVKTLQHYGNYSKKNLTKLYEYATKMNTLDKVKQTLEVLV

[2] = test system: T2, AbiEi (Streptococcus suis serotype 5 strain HN105), ORF:22a13f51
T2 sequence: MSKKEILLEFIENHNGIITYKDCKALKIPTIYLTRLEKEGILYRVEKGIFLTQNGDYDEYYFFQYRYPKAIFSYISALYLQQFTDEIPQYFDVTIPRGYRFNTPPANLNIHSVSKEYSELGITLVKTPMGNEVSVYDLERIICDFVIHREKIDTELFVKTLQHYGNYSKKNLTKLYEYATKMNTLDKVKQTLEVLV

[3] = test system: T3, SezA (Streptococcus suis serotype 5 strain HN105), ORF:21ec5bb3
T3 sequence: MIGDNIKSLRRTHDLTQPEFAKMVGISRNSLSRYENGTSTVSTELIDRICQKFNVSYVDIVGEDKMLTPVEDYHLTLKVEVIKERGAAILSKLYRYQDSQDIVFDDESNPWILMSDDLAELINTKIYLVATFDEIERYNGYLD

[4] = test system: AbiEi (Streptococcus suis serotype 5 strain HN105)
[5] = test system: SezA (Streptococcus suis serotype 5 strain HN105)

CCTACTATCCTTTCAACATGATATTTGTCTGACAATGTAAGGCTGCCTCACATTGTCAGTACGCTTCCTAAAGACTTCACTCTCTCCTTGTTCGGTCTTTGCGAGCTCAGATATTGTGTCCACAATATCCCCAGTAGAAAATCAACACTTGATTTTTTTAGGAATGATATTAGGATAATAGAGGTGATTTGGAAAAGGTATCACAAAACAAAAAGTAGGATATTTCTAACCTACTTTTCATTTCCTTATA (double strand) [T sequence (oriT)]
binding [1]: no binding | Kd [2]: 153 nM

AGTACAGGACTGGATTCAATTTTATGCCAAAATTCCTGCCAAACTTCAAATTTATGAACTCAAACCCCTTGATACTGCACATTTAACAGGTTGTGCAATTGTTACTCTTAAATAATAGAGTTTCCAATCAAAATAAAAACCTATCACCTAATGTGGTAGGTTTTTTTTGTTCTATTGTTGCAAACGTTTTCGTTGTGGGGTATAATATAAAAAAT (double strand) [L sequence (attL)]
Kd [3]: 1960 nM

GGGACATTATAACCGATGAGGAACAAATTCTTGATAAGTCAATCCAAGAAGCGAAAAATAAACTGAATACTGAGCAGTTGGAGAAGCGAATAGAGGAGTTTAAGCAATCGAAGAAACCTAAAAACGGATAATGCACCAAATATGGTGCGTTATCCGTTTTTTATGGTATAATGAAAGCAAATATGAGGAGGTCTTTATCT (double strand) [SezAT promoter]
binding [2]: binds | binding [3]: binds

AGAAAGTGATGATTACATGTTTTGGTCATAAATAGTCCTTCTTTTCTTTTTTCTGTAGCAACAAACTGTCACTCTTTTCTCATCATAAAAAAGAAGGCTTGATTTTGTTATCACAATACATTAATGTAAAAGAAATATTGTAAAAGGAAGGAGTAAGT (double strand) [PAbiE-ΔIR1/2]
binding ([2]; IR1 and IR2 deleted): no binding

AGAAAGTGATGATTACATGTTTTGGTCATAAATAGTCCTTCTTTTCTTTTTTCTGTAGCAACAAACTGTCACTCTTTTCTCATCATAAAAAAGAAGGCTTGATTTTGTTATCACAATACATTAATGTAAAAGAAAATGTTGCTTTTGCACTACAAATATTGTAAAATTGTAGTATAAAAGCAACATTGGAAGGAGTAAGT (double strand) [AbiE promoter]
binding [1]: no binding | binding [2]: binds | binding [3]: no binding

T sequence (oriT)
Kd [4]: 153 nM

AGTACAGGACTGGATTCAATTTTATGCCAAAATTCCTGCCAAACTTCAAATTTATGAACTCAAACCCCTTGATACTGCACATTTAACAGGTTGTGCAATTTAGAGTTTCCAATCAAAATAAAAACCTATCACCTAATGTGGTAGGTTTTTTTTGTTCTATTGTTGCAAACGTTTTCGTTGTGGGGTATAATATAAAAAAT (double strand) [L-ΔattL]
binding ([3]; attL deleted): no binding

AGATAAAGACCTCCTCATATTTGCTTTCATTATACCATATATTAGGTTTCTTCGATTGCTTAAACTCCTCTATTCGCTTCTCCAACTGCTCAGTATTCAGTTTATTTTTCGCTTCTTGGATTGACTTATCAAGAATTTGTTCCTCATCGGTTATAATGTCCC (double strand) [PSezAT-ΔIR1/2]
binding ([3]; IR1 and IR2 deleted): no binding

TATAAGGAAATGAAAAGTAGGTTAGAAATATCCTACTTTTTGTTTTGTGATACCTTTTCCAAATCACCTCTATTATCCTAATATCATTCCTAAAAAAATCAAGTGTTGATTTTCTACTGCGAACAAGGAGAGAGTGAAGTCTTTAGGAAGCGTACTGACAATGTGAGGCAGCCTTACATTGTCAGACAAATATCATGTTGAAAGGATAGTAGG (double strand) [T-ΔoriT]
binding ([2]; oriT deleted): no binding

AGAAAGTGATGATTACATGTTTTGGTCATAAATAGTCCTTCTTTTCTTTTTTCTGTAGCAACAAACTGTCACTCTTTTCTCATCATAAAAAAGAAGGCTTGATTTTGTTATCACAATACATTAATGTAAAAGAAATATTGTAAAATTGTAGTATAAAAGCAACATTGGAAGGAGTAAGT (double strand) [PAbiE-ΔIR2]
binding ([2]; IR2 deleted): binds

ACTTACTCCTTCCTTTTACAATATTTGTAGTGCAAAAGCAACATTTTCTTTTACATTAATGTATTGTGATAACAAAATCAAGCCTTCTTTTTTATGATGAGAAAAGAGTGACAGTTTGTTGCTACAGAAAAAAGAAAAGAAGGACTATTTATGACCAAAACATGTAATCATCACTTTCT (double strand) [PAbiE-ΔIR1]
binding ([2]; IR1 deleted): binds

L sequence (attL)
Kd [5]: 1960 nM
